Consider 16 molecules from patent publication US20240116985A1 (published 2024).

Starred links: 1 amine or outer side, 2 acyl side, 3 side chain; linkers in the order of their positions; H or OH if unused. Positions of bridges follow the written chain, without caps; N, C: chain ends. Non-standard residues stand in square brackets, D forms with d. Primed or numbered codes have the meaning given here. *: point of attachment. PyrS2(3) = (S)-3-amino-1-((pent-4-en-1-yloxy)carbonyl)pyrrolidine-3-carboxylic acid, stapling residue, C=CCCCOC(=O)N1CC[C@@](N[*:1])(C(=O)[*:2])C1; B5(23) = 2-amino-2-(pent-4-en-1-yl)hept-6-enoic acid (2,2-bis(4-pentenyl)glycine), stitching residue, C=CCCCC(CCCC=C)(N[*:1])C(=O)[*:2]; TfeGA = (S)-2-amino-3-((carboxymethyl)(2,2,2-trifluoroethyl)amino)propanoic acid, O=C([C@H](CN(CC(=O)[*:3])CC(F)(F)F)N[*:1])[*:2]; PyrS2 = (S)-3-amino-1-((pent-4-en-1-yloxy)carbonyl)pyrrolidine-3-carboxylic acid, C=CCCCOC(=O)N1CC[C@@](N[*:1])(C(=O)[*:2])C1; PyrS = (S)-1-((allyloxy)carbonyl)-3-aminopyrrolidine-3-carboxylic acid, C=CCOC(=O)N1CC[C@@](N[*:1])(C(=O)[*:2])C1; B5(19) = 2-amino-2-(pent-4-en-1-yl)hept-6-enoic acid (bis(4-pentenyl)glycine), C=CCCCC(CCCC=C)(N[*:1])C(=O)[*:2]; B5(7) = 2-amino-2-(pent-4-en-1-yl)hept-6-enoic acid, two olefinic side chains, C=CCCCC(CCCC=C)(N[*:1])C(=O)[*:2]; HypEs5 = (2R,4S)-4-(pent-4-enoyloxy)pyrrolidine-2-carboxylic acid, C=CCCC(=O)O[C@H]1C[C@H](C(=O)[*:2])N([*:1])C1; GA = (S)-2-amino-3-((carboxymethyl)amino)propanoic acid, O=C([C@H](CNCC(=O)[*:3])N[*:1])[*:2]; Phe(4-tetrazol-5-yl) = N[C@@H](Cc1ccc(-c2nnn[nH]2)cc1)C(=O)O; Phe(2-Cl) = N[C@@H](Cc1ccccc1Cl)C(=O)O; Bta = N[C@@H](Cc1csc2ccccc12)C(=O)O; αAllylPro = C=CC[C@@]1(C(=O)O)CCCN1; tBuAla = CC(C)(C)C[C@H](N)C(=O)O; 3Thi = N[C@@H](Cc1ccsc1)C(=O)O; Pfb = not defined here; Ms = CS(=O)(=O)*

The chains are these.
T1: B-cat-Halo (beta-catenin HaloTag construct expressed in HEK293 cells) (UniProt P35222 1-781)
T1 sequence (looked up): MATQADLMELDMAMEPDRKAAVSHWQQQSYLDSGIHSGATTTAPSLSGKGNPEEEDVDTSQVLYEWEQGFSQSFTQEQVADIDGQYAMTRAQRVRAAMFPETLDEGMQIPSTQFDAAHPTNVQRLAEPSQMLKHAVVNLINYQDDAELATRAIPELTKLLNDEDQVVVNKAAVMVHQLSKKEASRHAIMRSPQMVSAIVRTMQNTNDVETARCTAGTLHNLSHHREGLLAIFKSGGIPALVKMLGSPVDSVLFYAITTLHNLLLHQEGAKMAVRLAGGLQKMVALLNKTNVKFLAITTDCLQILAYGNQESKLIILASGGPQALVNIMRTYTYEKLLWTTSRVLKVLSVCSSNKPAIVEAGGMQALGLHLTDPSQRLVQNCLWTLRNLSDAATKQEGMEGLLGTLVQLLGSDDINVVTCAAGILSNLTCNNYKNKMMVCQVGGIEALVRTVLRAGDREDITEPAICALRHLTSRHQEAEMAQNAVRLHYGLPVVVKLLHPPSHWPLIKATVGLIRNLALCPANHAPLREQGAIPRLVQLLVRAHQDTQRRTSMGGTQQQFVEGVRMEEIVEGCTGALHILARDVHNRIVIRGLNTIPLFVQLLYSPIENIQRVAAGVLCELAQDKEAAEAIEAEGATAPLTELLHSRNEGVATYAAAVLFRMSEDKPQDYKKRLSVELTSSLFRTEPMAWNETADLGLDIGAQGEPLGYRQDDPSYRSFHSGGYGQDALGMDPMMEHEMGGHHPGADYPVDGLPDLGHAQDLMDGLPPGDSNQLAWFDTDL

T2: B-cat-Halo (NanoBRET construct expressed in HEK293 cells) (UniProt P35222 1-781, HaloTag NanoBRET 618 Ligand bound in the assay)
T2 sequence (looked up): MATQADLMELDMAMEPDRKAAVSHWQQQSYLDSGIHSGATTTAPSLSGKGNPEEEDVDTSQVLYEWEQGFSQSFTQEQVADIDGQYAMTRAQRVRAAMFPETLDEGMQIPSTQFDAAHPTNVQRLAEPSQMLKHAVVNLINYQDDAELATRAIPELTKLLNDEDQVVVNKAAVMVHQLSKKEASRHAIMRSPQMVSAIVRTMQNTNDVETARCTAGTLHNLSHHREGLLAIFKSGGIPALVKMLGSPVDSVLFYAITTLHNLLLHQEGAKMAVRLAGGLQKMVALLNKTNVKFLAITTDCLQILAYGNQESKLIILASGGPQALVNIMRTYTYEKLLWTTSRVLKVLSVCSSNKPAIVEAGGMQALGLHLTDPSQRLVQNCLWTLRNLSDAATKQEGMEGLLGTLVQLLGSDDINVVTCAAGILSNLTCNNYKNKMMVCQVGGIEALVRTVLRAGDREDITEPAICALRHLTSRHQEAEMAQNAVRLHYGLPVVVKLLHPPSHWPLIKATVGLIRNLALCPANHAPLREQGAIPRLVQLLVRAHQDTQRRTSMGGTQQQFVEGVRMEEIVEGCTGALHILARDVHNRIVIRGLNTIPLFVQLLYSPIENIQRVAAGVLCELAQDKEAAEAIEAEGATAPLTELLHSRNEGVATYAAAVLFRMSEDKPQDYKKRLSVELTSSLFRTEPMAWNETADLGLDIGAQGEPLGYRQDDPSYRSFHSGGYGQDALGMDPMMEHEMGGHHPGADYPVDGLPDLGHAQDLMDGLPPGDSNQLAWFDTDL

T3: B-cat-Halo (UniProt P35222 1-781)
T3 sequence (looked up): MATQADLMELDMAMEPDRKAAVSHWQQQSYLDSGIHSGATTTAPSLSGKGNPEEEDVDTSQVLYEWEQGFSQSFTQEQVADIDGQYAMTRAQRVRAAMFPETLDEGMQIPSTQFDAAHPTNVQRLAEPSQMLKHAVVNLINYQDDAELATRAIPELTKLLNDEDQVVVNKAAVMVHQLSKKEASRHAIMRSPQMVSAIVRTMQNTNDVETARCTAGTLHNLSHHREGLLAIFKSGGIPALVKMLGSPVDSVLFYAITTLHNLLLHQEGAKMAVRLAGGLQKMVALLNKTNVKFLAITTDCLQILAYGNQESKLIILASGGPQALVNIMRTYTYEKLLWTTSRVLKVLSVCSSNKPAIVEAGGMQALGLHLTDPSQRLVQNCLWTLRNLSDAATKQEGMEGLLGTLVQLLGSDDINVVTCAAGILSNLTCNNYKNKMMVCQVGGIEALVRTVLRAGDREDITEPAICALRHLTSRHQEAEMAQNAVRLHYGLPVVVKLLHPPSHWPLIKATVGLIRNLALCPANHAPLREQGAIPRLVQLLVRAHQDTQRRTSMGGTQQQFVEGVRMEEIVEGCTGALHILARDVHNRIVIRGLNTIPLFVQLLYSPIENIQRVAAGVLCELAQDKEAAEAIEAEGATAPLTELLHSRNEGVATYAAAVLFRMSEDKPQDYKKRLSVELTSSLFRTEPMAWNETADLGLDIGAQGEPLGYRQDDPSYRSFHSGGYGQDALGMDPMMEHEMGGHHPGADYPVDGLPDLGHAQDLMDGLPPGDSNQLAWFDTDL

B1: I-1823 (peptide)
peptide: Ac-[αAllylPro]D[tBuAla][B5(19)]DDAAFN[PyrS][3Thi][Bta]Q-NH2
modifications: staple 1-4, 4-11; also: staple olefins reduced to CH2-CH2
B2: I-772 (peptide)
peptide: Ac-[αAllylPro]D[tBuAla][B5(7)]DDAAFQ[PyrS2][3Thi][Bta]H-NH2
modifications: staple 1-4, 4-11
B3: I-770 (peptide)
peptide: Ac-[αAllylPro]D[tBuAla][B5(7)]D[TfeGA]AAFN[PyrS2][3Thi][Bta]H-NH2
modifications: staple 1-4, 4-11
B4: I-771 (peptide)
peptide: Ac-[αAllylPro]D[tBuAla][B5(7)]DDAAFQ[PyrS2][3Thi][Bta]H-NH2
modifications: staple 1-4, 4-11
B5: I-1557 (peptide)
peptide: Ac-[αAllylPro]D[tBuAla][B5(23)]NNAAFL[PyrS2][3Thi][Bta]Q-NH2
modifications: staple 1-4, 4-11
B6: I-1578 (peptide)
peptide: Ac-[αAllylPro]D[tBuAla][B5(23)]D[3TzF]AAFN[PyrS2(3)][3Thi][Bta]Q-NH2
modifications: staple 1-4, 4-11
B7: I-1556 (peptide)
peptide: Ac-[αAllylPro]DA[B5(23)]NNAAFN[PyrS2][3Thi][Bta]Q-NH2
modifications: staple 1-4, 4-11
B8: I-1573 (peptide)
peptide: Ac-[HypEs5]D[tBuAla][B5(23)]DDAAFN[PyrS2][3Thi][Bta]Q-NH2
modifications: staple 1-4, 4-11
B9: I-1574 (peptide)
peptide: Ms-[HypEs5]D[tBuAla][B5(23)]DDAAFN[PyrS2][3Thi][Bta]Q-NH2
modifications: staple 1-4, 4-11; not fully specified; printed as MeSO2-HypEs5-Asp-Npg-B5-Asp-Asp-Ala-Ala-Phe-Asn-PyrS2-3Thi-BztA-Gln-NH2
B10: I-1565 (peptide)
peptide: Ac-[αAllylPro]D[tBuAla][B5(23)]NTAAFN[PyrS2][3Thi][Bta]Q-NH2
modifications: staple 1-4, 4-11; not fully specified; printed as Ac-PL3-Asp-Npg-B5-Asn-Thr-Ala-Ala-Phe-Asn-PyrS2-3Thi-BztA-Gln-NH2
B11: I-1571 (peptide)
peptide: Ac-[αAllylPro]D[tBuAla][B5(23)]D[GA](Pfb)AAFN[PyrS2][Phe(2-Cl)][Bta]Q-NH2
modifications: staple 1-4, 4-11; reading uncertain; also: printed as Ac-PL3-Asp-Npg-B5-Asp-[Pfb]GA-Ala-Ala-Phe-Asn-PyrS2-2C1F-BztA-Gln-NH2
B12: I-1572 (peptide)
peptide: Ac-[αAllylPro]D[tBuAla][B5(23)]D[GA]AAFN[PyrS2][Phe(2-Cl)][Bta]Q-NH2
modifications: staple 1-4, 4-11
B13: I-1564 (peptide)
peptide: Ac-[αAllylPro]D[tBuAla][B5(23)]NTAAFN[PyrS2][3Thi][Bta]Q-NH2
modifications: staple 1-4, 4-11; also: earlier-eluting HPLC staple isomer
B14: I-1567 (peptide)
peptide: Ac-[αAllylPro]D[tBuAla][B5(23)]NQAAFN[PyrS2][3Thi][Bta]Q-NH2
modifications: staple 1-4, 4-11; not fully specified; printed as Ac-PL3-Asp-Npg-B5-Asn-Gln-Ala-Ala-Phe-Asn-PyrS2-3Thi-BztA-Gln-NH2
B15: I-1566 (peptide)
peptide: Ac-[αAllylPro]D[tBuAla][B5(23)]NQAAFN[PyrS2][3Thi][Bta]Q-NH2
modifications: staple 1-4, 4-11; also: earlier-eluting HPLC staple isomer
B16: I-1579 (peptide)
peptide: Ac-[αAllylPro]D[tBuAla][B5(23)]D[Phe(4-tetrazol-5-yl)]AAFN[PyrS2(3)][3Thi][Bta]Q-NH2
modifications: staple 1-4, 4-11

The first assay concerns the target T1, B-cat-Halo (beta-catenin HaloTag …). The experiment in a line: cell-based or functional assay.
With B1, the “NanoBRET Abs IC50” value was more than 20 µM.

The next assay deals with T2, B-cat-Halo (NanoBRET construct …). Kind of assay: cell-based or functional assay.
For B2, the “NanoBRET Abs IC50” value was more than 20 µM.

In the case of B3, the “NanoBRET Abs IC50” value is 13.7 µM.

Take B4: the “NanoBRET Abs IC50” value was determined as 37.3 µM.

A further assay deals with T3, B-cat-Halo. The experiment in a line: cell-based or functional assay.
With B5, the “NanoBRET Abs IC50” value was more than 20 µM.

On to B6, for which the “NanoBRET Abs IC50” value was more than 20 µM.

On to B7, for which the “NanoBRET Abs IC50” value was more than 20 µM.

Take B8: the “NanoBRET Abs IC50” value is more than 20 µM.

Regarding B9, the “NanoBRET Abs IC50” value was more than 20 µM.

Take B10: the “NanoBRET Abs IC50” value was more than 20 µM.

In the case of B11, the “NanoBRET Abs IC50” value is 11.7 µM.

In the case of B12, the “NanoBRET Abs IC50” value was more than 20 µM.

B13: the “NanoBRET Abs IC50” value is more than 20 µM.

As to B14, the “NanoBRET Abs IC50” value is more than 20 µM.

For the molecule B15, the “NanoBRET Abs IC50” value was more than 20 µM.

B16: the “NanoBRET Abs IC50” value is more than 20 µM.
